What follows are sequences tested on Escherichia coli TOP10 (assay: shrunken log2 fold change of peptide-encoding DNA abundance (4.5 h post-induction vs induction); higher = less antimicrobial activity (less host growth inhibition)). Conditions: time post-induction: 4.5 h; library: site-saturation at positions 5, 18, 19, 20.
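Further: peptides expressed intracellularly from a pBAD plasmid library in pooled LB shake-flask culture, induced with 0.3% L-arabinose, DNA abundance read by NGS, three biological replicates, DESeq2 with apeglm shrinkage.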

| Sequence | shrunken log2 fold change |
| --- | --- |
| RRIRPRPPRLPRPRPRPCYPPRP | -0.301 |
| RRIRPRPPRLPRPRPRPDAAPRP | 0.721 |
| RRIRPRPPRLPRPRPRPDAHPRP | 0.209 |
| RRIRPRPPRLPRPRPRPDARPRP | 0.58 |
| RRIRPRPPRLPRPRPRPDCMPRP | 0.053 |
| RRIRPRPPRLPRPRPRPDDAPRP | -0.0674 |
| RRIRPRPPRLPRPRPRPDDIPRP | -0.0962 |
| RRIRPRPPRLPRPRPRPDDMPRP | 0.0244 |
| RRIRPRPPRLPRPRPRPDDYPRP | 0.0238 |
| RRIRPRPPRLPRPRPRPDEDPRP | 0.00574 |
| RRIRPRPPRLPRPRPRPDEPPRP | 0.0641 |
| RRIRPRPPRLPRPRPRPDGGPRP | -0.129 |
| RRIRPRPPRLPRPRPRPDKMPRP | 0.0748 |
| RRIRPRPPRLPRPRPRPDLLPRP | -0.0805 |
| RRIRPRPPRLPRPRPRPDMCPRP | 0.00204 |
| RRIRPRPPRLPRPRPRPDMEPRP | -0.0437 |
| RRIRPRPPRLPRPRPRPDMPPRP | -0.302 |
| RRIRPRPPRLPRPRPRPDMRPRP | 0.861 |
| RRIRPRPPRLPRPRPRPDNYPRP | -0.496 |
| RRIRPRPPRLPRPRPRPDPEPRP | 0.136 |
| RRIRPRPPRLPRPRPRPDRMPRP | -0.234 |
| RRIRPRPPRLPRPRPRPDRRPRP | 0.192 |
| RRIRPRPPRLPRPRPRPDSNPRP | -0.221 |
| RRIRPRPPRLPRPRPRPDVFPRP | -0.203 |
| RRIRPRPPRLPRPRPRPDWEPRP | 0.19 |

| Sequence | shrunken log2 fold change |
| --- | --- |
| RRIRPRPPRLPRPRPRPDWGPRP | 0.107 |
| RRIRPRPPRLPRPRPRPDWYPRP | -0.213 |
| RRIRPRPPRLPRPRPRPDYMPRP | -0.334 |
| RRIRPRPPRLPRPRPRPEAEPRP | 0.979 |
| RRIRPRPPRLPRPRPRPEAKPRP | 1.03 |
| RRIRPRPPRLPRPRPRPEDCPRP | -0.0873 |
| RRIRPRPPRLPRPRPRPEDLPRP | 0.0558 |
| RRIRPRPPRLPRPRPRPEEHPRP | -0.0242 |
| RRIRPRPPRLPRPRPRPEGAPRP | 0.713 |
| RRIRPRPPRLPRPRPRPEHYPRP | -0.106 |
| RRIRPRPPRLPRPRPRPEICPRP | 0.0345 |
| RRIRPRPPRLPRPRPRPEIQPRP | 0.07 |
| RRIRPRPPRLPRPRPRPEKYPRP | -0.562 |
| RRIRPRPPRLPRPRPRPELDPRP | 0.0969 |
| RRIRPRPPRLPRPRPRPEMRPRP | 0.329 |
| RRIRPRPPRLPRPRPRPENDPRP | -0.0164 |
| RRIRPRPPRLPRPRPRPEPSPRP | 0.314 |
| RRIRPRPPRLPRPRPRPEQVPRP | 0.0348 |
| RRIRPRPPRLPRPRPRPERAPRP | 1.17 |
| RRIRPRPPRLPRPRPRPERDPRP | 0.195 |
| RRIRPRPPRLPRPRPRPERGPRP | 0.575 |
| RRIRPRPPRLPRPRPRPERHPRP | 0.00192 |
| RRIRPRPPRLPRPRPRPERIPRP | 0.152 |
| RRIRPRPPRLPRPRPRPERVPRP | 0.451 |
| RRIRPRPPRLPRPRPRPESHPRP | -0.00995 |

| Sequence | shrunken log2 fold change |
| --- | --- |
| RRIRPRPPRLPRPRPRPESMPRP | 0.142 |
| RRIRPRPPRLPRPRPRPETFPRP | 0.176 |
| RRIRPRPPRLPRPRPRPETWPRP | 0.1 |
| RRIRPRPPRLPRPRPRPEWWPRP | 0.0468 |
| RRIRPRPPRLPRPRPRPEYEPRP | -0.0375 |
| RRIRPRPPRLPRPRPRPFDCPRP | -0.52 |
| RRIRPRPPRLPRPRPRPFGKPRP | -0.164 |
| RRIRPRPPRLPRPRPRPFGWPRP | 0.328 |
| RRIRPRPPRLPRPRPRPFHLPRP | -0.54 |
| RRIRPRPPRLPRPRPRPFHSPRP | -0.153 |
| RRIRPRPPRLPRPRPRPFHWPRP | 0.0105 |
| RRIRPRPPRLPRPRPRPFKDPRP | -0.93 |
| RRIRPRPPRLPRPRPRPFKGPRP | -0.209 |
| RRIRPRPPRLPRPRPRPFKMPRP | -0.384 |
| RRIRPRPPRLPRPRPRPFKRPRP | -0.00475 |
| RRIRPRPPRLPRPRPRPFLKPRP | -0.159 |
| RRIRPRPPRLPRPRPRPFMAPRP | -0.305 |
| RRIRPRPPRLPRPRPRPFMDPRP | -0.248 |
| RRIRPRPPRLPRPRPRPFNCPRP | -0.537 |
| RRIRPRPPRLPRPRPRPFPCPRP | -0.0101 |
| RRIRPRPPRLPRPRPRPFSFPRP | -0.0166 |
| RRIRPRPPRLPRPRPRPFSRPRP | -0.099 |
| RRIRPRPPRLPRPRPRPFTRPRP | -0.00841 |
| RRIRPRPPRLPRPRPRPFTTPRP | -0.0187 |
| RRIRPRPPRLPRPRPRPFWCPRP | -0.0114 |

| Sequence | shrunken log2 fold change |
| --- | --- |
| RRIRPRPPRLPRPRPRPFWQPRP | 0.00477 |
| RRIRPRPPRLPRPRPRPFYPPRP | -0.854 |
| RRIRPRPPRLPRPRPRPFYTPRP | -0.429 |
| RRIRPRPPRLPRPRPRPGADPRP | 0.407 |
| RRIRPRPPRLPRPRPRPGDKPRP | -0.307 |
| RRIRPRPPRLPRPRPRPGEDPRP | 0.461 |
| RRIRPRPPRLPRPRPRPGFDPRP | 0.131 |
| RRIRPRPPRLPRPRPRPGFPPRP | 0.355 |
| RRIRPRPPRLPRPRPRPGFQPRP | 0.215 |
| RRIRPRPPRLPRPRPRPGHPPRP | -0.12 |
| RRIRPRPPRLPRPRPRPGITPRP | -0.138 |
| RRIRPRPPRLPRPRPRPGKDPRP | 0.0142 |
| RRIRPRPPRLPRPRPRPGKIPRP | -0.168 |
| RRIRPRPPRLPRPRPRPGMLPRP | -0.0338 |
| RRIRPRPPRLPRPRPRPGQMPRP | -0.0125 |
| RRIRPRPPRLPRPRPRPGQPPRP | -0.0656 |
| RRIRPRPPRLPRPRPRPGRMPRP | 0.318 |
| RRIRPRPPRLPRPRPRPGSTPRP | 0.123 |
| RRIRPRPPRLPRPRPRPGYCPRP | -0.147 |
| RRIRPRPPRLPRPRPRPGYPPRP | -0.0289 |
| RRIRPRPPRLPRPRPRPGYVPRP | -0.401 |
| RRIRPRPPRLPRPRPRPHAGPRP | 1.77 |
| RRIRPRPPRLPRPRPRPHDKPRP | -0.271 |
| RRIRPRPPRLPRPRPRPHENPRP | -0.0875 |
| RRIRPRPPRLPRPRPRPHFMPRP | -0.231 |

| Sequence | shrunken log2 fold change |
| --- | --- |
| RRIRPRPPRLPRPRPRPHFSPRP | -0.108 |
| RRIRPRPPRLPRPRPRPHHNPRP | -0.859 |
| RRIRPRPPRLPRPRPRPHICPRP | -0.0442 |
| RRIRPRPPRLPRPRPRPHIQPRP | -0.312 |
| RRIRPRPPRLPRPRPRPHKKPRP | 0.165 |
| RRIRPRPPRLPRPRPRPHKNPRP | -0.0554 |
| RRIRPRPPRLPRPRPRPHNLPRP | -0.131 |
| RRIRPRPPRLPRPRPRPHPSPRP | 0.000134 |
| RRIRPRPPRLPRPRPRPHQAPRP | 0.0618 |
| RRIRPRPPRLPRPRPRPHQDPRP | -0.362 |
| RRIRPRPPRLPRPRPRPHQMPRP | 0.0123 |
| RRIRPRPPRLPRPRPRPHSWPRP | 0.069 |
| RRIRPRPPRLPRPRPRPHVPPRP | 3.25 |
| RRIRPRPPRLPRPRPRPHWFPRP | 0.0501 |
| RRIRPRPPRLPRPRPRPHYHPRP | -0.936 |
| RRIRPRPPRLPRPRPRPICAPRP | 0.0637 |
| RRIRPRPPRLPRPRPRPICIPRP | -0.158 |
| RRIRPRPPRLPRPRPRPICWPRP | 0.0407 |
| RRIRPRPPRLPRPRPRPIEFPRP | -0.114 |
| RRIRPRPPRLPRPRPRPIENPRP | -0.414 |
| RRIRPRPPRLPRPRPRPIGKPRP | -0.156 |
| RRIRPRPPRLPRPRPRPIHCPRP | -0.125 |
| RRIRPRPPRLPRPRPRPIHMPRP | -0.23 |
| RRIRPRPPRLPRPRPRPIHRPRP | -0.0135 |
| RRIRPRPPRLPRPRPRPIKPPRP | -0.0651 |

| Sequence | shrunken log2 fold change |
| --- | --- |
| RRIRPRPPRLPRPRPRPILSPRP | -0.038 |
| RRIRPRPPRLPRPRPRPIMGPRP | -0.233 |
| RRIRPRPPRLPRPRPRPINCPRP | -0.126 |
| RRIRPRPPRLPRPRPRPINNPRP | 0.81 |
| RRIRPRPPRLPRPRPRPIPIPRP | -0.065 |
| RRIRPRPPRLPRPRPRPIPSPRP | 0.00576 |
| RRIRPRPPRLPRPRPRPIRAPRP | -0.106 |
| RRIRPRPPRLPRPRPRPITDPRP | -0.16 |
| RRIRPRPPRLPRPRPRPITRPRP | 0.31 |
| RRIRPRPPRLPRPRPRPIWMPRP | 0.0829 |
| RRIRPRPPRLPRPRPRPIYKPRP | -0.333 |
| RRIRPRPPRLPRPRPRPIYLPRP | -0.379 |
| RRIRPRPPRLPRPRPRPIYNPRP | -0.837 |
| RRIRPRPPRLPRPRPRPKAMPRP | 0.000243 |
| RRIRPRPPRLPRPRPRPKDHPRP | 0.0743 |
| RRIRPRPPRLPRPRPRPKDKPRP | -0.125 |
| RRIRPRPPRLPRPRPRPKDRPRP | -0.114 |
| RRIRPRPPRLPRPRPRPKEEPRP | 0.0604 |
| RRIRPRPPRLPRPRPRPKGYPRP | -0.13 |
| RRIRPRPPRLPRPRPRPKHTPRP | -0.198 |
| RRIRPRPPRLPRPRPRPKHYPRP | -0.529 |
| RRIRPRPPRLPRPRPRPKKDPRP | -0.151 |
| RRIRPRPPRLPRPRPRPKKKPRP | -0.192 |
| RRIRPRPPRLPRPRPRPKKVPRP | 0.0308 |
| RRIRPRPPRLPRPRPRPKMAPRP | -0.0597 |
